Measurements published in US20220135628A1 (OXFORD UNIVERSITY INNOVATION, published 2022).
Where two headings read alike, the source gives them in different places. No end group written: not given here.

T1: SpyTag002-MBP (also: fused to MBP, sequence and linker not given here)
T1 construct: not shown: construct pET28a SpyTag002-MBP, GenBank MF974389
T1 chain: VPTIVMVDAYKRYK

T2: SpyTag003 DA-MBP (also: fused to MBP, sequence and linker not given here)
T2 chain: RGVPHIVMVAAYKRYK


Key:
SpyTag003-MBP [1] = test: SDS-PAGE with sfGFP fluorescence, pH 7.0, 25 C
Protocol: (§1) The sfGFP fusions were used to enable reactions to be carried out at concentrations as low as 10 nM. […] Percentage isopeptide product formation was calculated by dividing the intensity of the band for the covalent complex by the intensity of all the bands in the lane and multiplying by 100. […] Time-points were analysed during the linear portion of the reaction curve. […] Experiments were carried out in triplicate and the data represent the mean±1 standard deviation.

SpyTag002-MBP = molecular target: T1, SpyTag002-MBP; test: SDS-PAGE with sfGFP fluorescence, pH 7.0, 25 C
Protocol: as §1

SpyTag-MBP = molecular target: T3, SpyTag-MBP; test: SDS-PAGE with sfGFP fluorescence, pH 7.0, 25 C
T3 construct: not shown: construct pET28a-SpyTag-MBP, Addgene 35050

SpyTag003-MBP [2] = test: SDS-PAGE with sfGFP fluorescence, pH 7.0, 25 C; remark: listed apart in the source
Protocol: as §1

SpyTag003 DA-MBP = molecular target: T2, SpyTag003 DA-MBP; test: isothermal titration calorimetry, 20 C, PBS pH 7.4, non-covalent complex
Protocol: Experiments were carried out using a Microcal PEAQ-ITC calorimeter (Malvern) at 20° C. in PBS pH 7.4. […] Analysis was carried out using a 1:1 binding model using MicroCal PEAQ-ITC Analysis software version 1.1.0.1262.

Binder	Rate constant (second-order, isopeptide bond formation) (SpyTag003-MBP [1]) [M⁻¹ s⁻¹]	Rate constant (second-order, isopeptide bond formation) (SpyTag002-MBP) [M⁻¹ s⁻¹]	Rate constant (second-order, isopeptide bond formation) (SpyTag-MBP) [M⁻¹ s⁻¹]	Rate constant (second-order, isopeptide bond formation) (SpyTag003-MBP [2]) [M⁻¹ s⁻¹]	Kd (SpyTag003 DA-MBP) [nM]
SpyCatcher003-sfGFP (designed binder, also called SpyCatcher003 fused to the N-terminus of super-folder GFP; not shown: super-folder GFP (sfGFP) C-terminal of the catcher) VTTLSGLSGEQGPSGDMTTEEDSATHIKFSKRDEDGRELAGATMELRDSSGKTISTWISDGHVKDFYLYPGKYTFVETAAPDGYEVATPIEFTVNEDGQVTVDGEATEGDAHT	550000	83000	24000	550000	–
SpyCatcher003 (designed binder, also called 003 Catcher) VTTLSGLSGEQGPSGDMTTEEDSATHIKFSKRDEDGRELAGATMELRDSSGKTISTWISDGHVKDFYLYPGKYTFVETAAPDGYEVATPIEFTVNEDGQVTVDGEATEGDAHT	–	–	–	–	< 10
